From publication PMC3150276

Target: MogR, full-length (transcriptional repressor of flagellar motility genes) (Listeria monocytogenes)
Sequence (G2K449 whole entry): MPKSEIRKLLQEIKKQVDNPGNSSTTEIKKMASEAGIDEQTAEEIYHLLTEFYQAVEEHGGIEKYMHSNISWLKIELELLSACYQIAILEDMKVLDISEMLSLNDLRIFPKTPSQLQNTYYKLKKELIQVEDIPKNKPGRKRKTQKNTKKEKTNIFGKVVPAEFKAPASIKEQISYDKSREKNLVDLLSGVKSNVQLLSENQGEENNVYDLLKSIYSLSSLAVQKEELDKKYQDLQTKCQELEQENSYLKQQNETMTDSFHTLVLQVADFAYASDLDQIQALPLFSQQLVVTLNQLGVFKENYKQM

With “GmaR, full-length (bifunctional flagellar anti-repressor/glycosyltransferase) (natural protein)” the gel mobility shift at 37°C: amount of purified GmaR-His6 needed to decrease shifted MogR-His6:DNA complexes as at 30°C was greater than 2 fold.
